Measurements as given in patent US9802997B2, “Peptides and combination of peptides for use in immunotherapy against various tumors” (immatics biotechnologies GmbH, priority 2015, dated 2017).

Target: HLA-A*02:01 (Homo sapiens, UniProt P04439, D140Y/D185E/D98H/E176V/E277Q/G131W/G231S/I119V/I121R/I166T/I218V/L300P/L318F/N151K/N90K/P208A/P217A/Q86G/Q94H/R138H/R169H/T345S)
Assay: MHC binding assay (UV-ligand exchange, beta2m ELISA)
Details: binding to HLA-A*02:01, β2m ELISA
Text: Candidate peptides for T cell based therapies according to the present invention were further tested for their MHC binding capacity (affinity). The individual peptide-MHC complexes were produced by UV-ligand exchange, where a UV-sensitive peptide is cleaved upon UV-irradiation, and exchanged with the peptide of interest as analyzed. Only peptide candidates that can effectively bind and stabilize the peptide-receptive MHC molecules prevent dissociation of the MHC complexes. To determine the yield of the exchange reaction, an ELISA was performed based on the detection of the light chain (β2m) of stabilized MHC complexes. The assay was performed as generally described in Rodenko et al. (Rodenko et al., 2006).
96 well MAXISorp plates (NUNC) were coated over night with 2 ug/ml streptavidin in PBS at room temperature, washed 4× and blocked for 1 h at 37° C. in 2% BSA containing blocking buffer. Refolded HLA-A*02:01/MLA-001 monomers served as standards, covering the range of 15-500 ng/ml. Peptide-MHC monomers of the UV-exchange reaction were diluted 100 fold in blocking buffer. Samples were incubated for 1 h at 37° C., washed four times, incubated with 2 ug/ml HRP conjugated anti-β2m for 1 h at 37° C., washed again and detected with TMB solution that is stopped with […]. Absorption was measured at 450 nm. Candidate peptides that show a high exchange yield (preferably higher than 50%, most preferred higher than 75%) are generally preferred for a generation and production of antibodies or fragments thereof, and/or T cell receptors or fragments thereof, as they show sufficient avidity to the MHC molecules and prevent dissociation of the MHC complexes.

Substance | Peptide exchange (MHC class I binding score, peptide exchange yield)
155 (TLDSYLKAV; listed as Homo sapiens) [compound 155] | ++ (≧20% = ++)
109 (ILGSFELQL; listed as Homo sapiens) [compound 109] | +++ (≧50 = +++)
68 (QLMNLIRSV; listed as Homo sapiens) [compound 68] | +++ (≧50 = +++)
163 (GLEERLYTA; listed as Homo sapiens) [compound 163] | ++ (≧20% = ++)
134 (SLYKSFLQL; listed as Homo sapiens) [compound 134] | ++ (≧20% = ++)
12 (RLLDPKTIFL; listed as Homo sapiens) [compound 12] | +++ (≧50 = +++)
5 (GLVDIMVHL; listed as Homo sapiens) [compound 5] | +++ (≧50 = +++)
279 (VLMDEGAVLTL; listed as Homo sapiens) [compound 279] | ++ (≧20% = ++)
227 (SEMEELPSV; listed as Homo sapiens) [compound 227] | + (≧10% = +)
173 (RLIDIYKNV; listed as Homo sapiens) [compound 173] | +++ (≧50 = +++)
105 (AMLASQTEA; listed as Homo sapiens) [compound 105] | ++ (≧20% = ++)
137 (KLIYKDLVSV; listed as Homo sapiens) [compound 137] | ++ (≧20% = ++)
67 (FLIENLLAA; listed as Homo sapiens) [compound 67] | +++ (≧50 = +++)
139 (IILENIQSL; listed as Homo sapiens) [compound 139] | +++ (≧50 = +++)
69 (LKVLKADVVL; listed as Homo sapiens) [compound 69] | ++ (≧20% = ++)
87 (KLLSLLEEA; listed as Homo sapiens) [compound 87] | +++ (≧50 = +++)
93 (RLYGYFHDA; listed as Homo sapiens) [compound 93] | ++ (≧20% = ++)
262 (LLLEAVWHL; listed as Homo sapiens) [compound 262] | +++ (≧50 = +++)
113 (FLFLKEVKV; listed as Homo sapiens) [compound 113] | ++ (≧20% = ++)
167 (LVVDEGSLVSV; listed as Homo sapiens) [compound 167] | +++ (≧50 = +++)
199 (SVADLAHVL; listed as Homo sapiens) [compound 199] | ++ (≧20% = ++)
20 (ALVEKGEFAL; listed as Homo sapiens) [compound 20] | ++ (≧20% = ++)
180 (RLYEEEIRI; listed as Homo sapiens) [compound 180] | +++ (≧50 = +++)
154 (AIIKEIQTV; listed as Homo sapiens) [compound 154] | ++ (≧20% = ++)
30 (IITEVITRL; listed as Homo sapiens) [compound 30] | +++ (≧50 = +++)
88 (LLLPLELSLA; listed as Homo sapiens) [compound 88] | +++ (≧50 = +++)
